According to publication PMC11166852, “Low-temperature features of the psychrophilic chaperonin from Pseudoalteromonas haloplanktis” (Archives of Microbiology, 2024):
Values belong to the molecule of their own block, whether it stands above or below them.

What was measured:
[1] = molecular target: Cpn60 from Pseudoalteromonas haloplanktis (Pseudoalteromonas haloplanktis)
[2] = molecular target: Cpn60 from Pseudoalteromonas haloplanktis (Pseudoalteromonas haloplanktis); experiment: SEC; analytical gel filtration, Superdex 75 GL (10/300), buffer C (20 mM MOPS pH 7.2, 150 mM KCl, 5 mM MgCl2), run at 5 °C, in the absence or presence of 1 mM ATP
[3] = molecular target: Cpn60 from Pseudoalteromonas haloplanktis (Pseudoalteromonas haloplanktis); experiment: negative-stain electron microscopy; 0.125 µM Cpn60 in buffer C preincubated at 5 °C or 25 °C; where indicated 1 mM ATP, 1 mM ADP and 0.375 µM Cpn10; 1% uranyl acetate
[4] = molecular target: Cpn60 from Pseudoalteromonas haloplanktis (Pseudoalteromonas haloplanktis); experiment: native gel or EMSA; native PAGE of purified proteins, Coomassie brilliant blue staining
[5] = molecular target: single-ring SR-GroEL (Escherichia coli) (UniProt P0A6F5); experiment: SEC; analytical gel filtration, Superdex 75 GL (10/300), buffer C (20 mM MOPS pH 7.2, 150 mM KCl, 5 mM MgCl2), run at 5 °C, in the absence or presence of 1 mM ATP
[6] = molecular target: Cpn60 from Pseudoalteromonas haloplanktis (Pseudoalteromonas haloplanktis); experiment: MST; Cpn60 labelled with NT-647-NHS, serial dilutions of Cpn10 in buffer C with 1 mM ADP, 25 °C, Monolith NT.115, MST power 80%
Escherichia coli GroEL = molecular target: T1, Escherichia coli GroEL (Escherichia coli, UniProt P0A6F5 1-548, fluorophore from the NT-647-NHS labeling kit (in the MST measurements only)); experiment: as above; conditions: both partners purified
T1 construct: GroEL (Cpn60) of Escherichia coli; Tetradecamer (MW 800 kDa); also called Ec GroEL; Ec chaperonin; source: E. coli, purified as described (Weissman et al. 1995; Hayer-Hartl et al. 1996; Kusmiercyk and Martin 2000); copies: 14
T1 sequence (P0A6F5 whole entry): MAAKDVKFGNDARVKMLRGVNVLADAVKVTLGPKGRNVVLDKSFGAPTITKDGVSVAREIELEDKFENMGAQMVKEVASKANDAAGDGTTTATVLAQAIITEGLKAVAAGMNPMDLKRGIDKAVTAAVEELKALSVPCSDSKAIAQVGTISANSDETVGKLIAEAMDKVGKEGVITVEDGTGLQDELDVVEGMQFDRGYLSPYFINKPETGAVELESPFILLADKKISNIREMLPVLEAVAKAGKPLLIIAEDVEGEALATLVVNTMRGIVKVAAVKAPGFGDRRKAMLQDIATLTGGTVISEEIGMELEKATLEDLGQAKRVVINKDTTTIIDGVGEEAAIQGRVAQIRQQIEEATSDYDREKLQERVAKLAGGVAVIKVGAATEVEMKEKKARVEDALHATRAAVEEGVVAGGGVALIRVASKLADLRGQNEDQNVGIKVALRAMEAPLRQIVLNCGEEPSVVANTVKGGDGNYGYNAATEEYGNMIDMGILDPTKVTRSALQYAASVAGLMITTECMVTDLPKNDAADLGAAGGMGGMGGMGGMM

stimulation of Ph Cpn60 ATPase by a five-fold molar excess of α-casein (10 °C and 25 °C, with or without Ph Cpn10) [1]: 3 fold
Molecule: α-casein (from UniProt P02662 16-214) (natural protein)

stoichiometry N [2]: 14
stoichiometry N [3]: 14
stoichiometry N [4]: 14
Molecule: Cpn60 from Pseudoalteromonas haloplanktis (natural protein)

stoichiometry N [5]: 7
Molecule: single-ring SR-GroEL (from UniProt P0A6F5 1-548) (natural protein)

Kd [6]: 352 nM
B1: Cpn10 from Pseudoalteromonas haloplanktis (natural protein)
chain: MNIRPLHDRVIVKRLEEETKSAGGIVLTGSAAEKSTRGEVVAVGNGRTLDNGDVRALEVKVGDTVLFGSYVEKAEKIEGQEYLIMREDNILGIVG

Kd (Escherichia coli GroEL): 8.8 ± 1.8 nM
B2: Escherichia coli GroES (natural protein, UniProt P0A6F9 1-97, looked up)
chain: MNIRPLHDRVIVKRKEVETKSAGGIVLTGSAAAKSTRGEVLAVGNGRILENGEVKPLDVKVGDIVIFNDGYGVKSEKIDNEEVLIMSESDILAIVEA
notes: GroES (Cpn10) of Escherichia coli; also called Ec GroES; source: E. coli, purified as described (Weissman et al. 1995; Hayer-Hartl et al. 1996; Kusmiercyk and Martin 2000)
